{
  "source": "patent US20240400703A1",
  "about": "(Genmab, published 2024)",
  "key": {"[1]": {"biological_target": "T1, recombinant human OX40 fused to a His-tag (Acro Biosystems, cat. no. OX0-H5224) (human, UniProt P43489 29-214)", "T1 construct": "bought protein; also called sOX40; soluble OX40; not shown: His-tag", "T1 sequence": "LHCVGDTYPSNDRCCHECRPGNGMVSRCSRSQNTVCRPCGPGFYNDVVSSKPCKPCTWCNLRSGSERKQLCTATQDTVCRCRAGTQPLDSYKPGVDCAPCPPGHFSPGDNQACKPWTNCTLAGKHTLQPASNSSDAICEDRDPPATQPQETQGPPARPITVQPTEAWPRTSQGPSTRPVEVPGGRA", "experiment": "BLI cross-block; first Ab (competitor): IgG1-CD134-11D4", "procedure": "(§1) Amine Reactive 2nd Generation (AR2G) biosensors (Sartorius, cat. no. 18-5092) were activated for 300 s with a solution of 20 mM EDC (N-(3-Dimethylaminopropyl)-N-ethylcarbodiimide hydrochloride; Sartorius, cat. no. 18-1033) and 10 mM s-NHS (N-hydroxysulfosuccinimide sodium salt; Sartorius, cat. no. 18-1067). […] After a baseline measurement in Sample Diluent (Sartorius, cat. no. 18-1104) for 50 s, the AR2G biosensors containing immobilized antibody were loaded for 300 s with human OX40 fused to a His-tag (100 nM diluted in Sample Diluent; Acro Biosystems, cat. no. OX0-H5224). The association (300 s) of a second antibody (10 μg/mL in Sample Diluent) was determined. Sensors were regenerated by three cycles of exposure to 10 mM Glycine (Sigma-Aldrich, cat. no. 15527) buffer pH 2.5 for 5 s followed by neutralization in Sample Diluent for 5 s.\n(§2) Data were acquired using Data Acquisition Software v12.0 (Sartorius) and analyzed with Data Analysis HT Software v12.0 (Sartorius). Data traces were corrected by subtraction of a reference curve (Sample Diluent instead of second antibody) in order to correct for the dissociation of antigen from the immobilized first antibody. The Y-axis was aligned to the start of the association step and Savitzky-Golay filtering was applied. The corrected association responses of the second antibodies were plotted in a matrix format (Table 5). Responses ≥0.1 nm were considered non-blocking antibody pairs, while responses <0.1 were considered blocking antibody pairs."}, "[2]": {"biological_target": "T1, recombinant human OX40 fused to a …", "experiment": "BLI cross-block; first Ab (competitor): IgG1-CD134-012", "procedure": "(§3) Experiments were carried out while shaking at 1,000 RPM and at 30° C.\nas §1, §2"}, "[3]": {"biological_target": "T1, recombinant human OX40 fused to a …", "experiment": "BLI cross-block; first Ab (competitor): IgG1-CD134-003-HC6LC2-RR", "procedure": "as §1, §2"}, "[4]": {"biological_target": "T1, recombinant human OX40 fused to a …", "experiment": "BLI cross-block; first Ab (competitor): IgG1-CD134-003", "procedure": "as §3, §1, §2"}, "[5]": {"biological_target": "T1, recombinant human OX40 fused to a …", "experiment": "BLI cross-block; first Ab (competitor): IgG1-CD134-ABBV368", "procedure": "as §3, §1, §2"}, "[6]": {"biological_target": "T1, recombinant human OX40 fused to a …", "experiment": "BLI cross-block; first Ab (competitor): IgG1-CD134-Hu106", "procedure": "as §1, §2"}, "[7]": {"biological_target": "T1, recombinant human OX40 fused to a …", "experiment": "BLI cross-block; first Ab (competitor): IgG1-CD134-RG7888", "procedure": "as §1, §2"}, "[8]": {"biological_target": "T1, recombinant human OX40 fused to a …", "experiment": "BLI cross-block; first Ab (competitor): IgG1-CD134-49B4-RRE", "procedure": "as §3, §1, §2"}, "[9]": {"biological_target": "T2, human OX40 expressed on cells (human, UniProt P43489 29-277)", "T2 construct": "also called CD134; TNFRSF4", "T2 sequence": "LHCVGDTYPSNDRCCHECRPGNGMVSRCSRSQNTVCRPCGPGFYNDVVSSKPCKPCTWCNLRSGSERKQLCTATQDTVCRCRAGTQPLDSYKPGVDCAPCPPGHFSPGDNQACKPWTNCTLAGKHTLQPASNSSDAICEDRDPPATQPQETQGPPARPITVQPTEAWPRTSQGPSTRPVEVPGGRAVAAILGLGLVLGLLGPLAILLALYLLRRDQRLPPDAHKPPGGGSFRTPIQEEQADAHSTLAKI", "experiment": "flow cytometry, activated human CD8+ T cells, mean of 3 donors", "procedure": "Healthy human donor PBMCs were purified essentially as described in Example 7. The cell concentration was adjusted to 2×10⁶ cells per mL (final concentration) in assay medium and plated in 6-well plates (Greiner, cat. no. 657160). PBMCs were stimulated with 0.3 μg/mL anti-CD3 ([…] Technologies, cat. no. 60011) and 0.5 μg/mL anti-CD28 antibodies (BioLegend, cat. no. 302934) and cultured for two days at 37° C., 5% CO₂. Next, the PBMCs were harvested, counted and brought to a concentration of 2×10⁶ cells per mL in FACS buffer 1 (DPBS with 2% heat-inactivated FBS and 2 mM ethylenediaminetetraacetic acid [EDTA]). […] After 60 min at RT, the cells were prepared for flow cytometric analyses. To this end, the cells were washed twice with 150 μL FACS buffer 1 and 30 μL/well cell-surface antibody mix (Table 9) in FACS buffer 1 containing antibody against human Fcγ antibody (Table 9) and fixable viability dye eFluor780 (1:1,500) was added. The staining procedures were carried out at 4° C. for 15-20 min protected from light. Stained cells were washed twice with 120-150 μL FACS buffer 1 (5 min, 460×g, RT) and resuspended in 60-100 μL FACS buffer 1 for direct flow cytometric analyses. Flow cytometric data were acquired on a FACSymphony A3 and analyzed with FlowJo software."}},
  "data": [
    {"binder": "IgG1-CD134-003 (antibody, rabbit-human chimeric IgG1, wild-type Fc; also called parental chimeric antibody) heavy: not shown light: AAVLTQTPSPVSAAVGGTVTIKCQSSQIVVNNNFLSWYQQKPGQPPKLLIYDASNLASGVPDRFSGSGSGTQFTLTISGVQSDDAATYYCLGGYDDDAENAFGGGTEVVVQRTVAAPSVFIFPPSDEQLKSGTASVVCLLNNFYPREAKVQWKVDNALQSGNSQESVTEQDSKDSTYSLSSTLTLSKADYEKHKVYACEVTHQGLSSPVTKSFNRGEC", "values": [
      {"measurement": "association response", "setting": "[1]", "result": 0.01, "unit": "nm"},
      {"measurement": "association response", "setting": "[2]", "result": -0.01, "unit": "nm"},
      {"measurement": "association response", "setting": "[3]", "result": -0.03, "unit": "nm"},
      {"measurement": "association response", "setting": "[4]", "result": 0.02, "unit": "nm"},
      {"measurement": "association response", "setting": "[5]", "result": 0.72, "unit": "nm"},
      {"measurement": "association response", "setting": "[6]", "result": 0.64, "unit": "nm"},
      {"measurement": "association response", "setting": "[7]", "result": 0.66, "unit": "nm"},
      {"measurement": "association response", "setting": "[8]", "result": 0.2, "unit": "nm"}
    ]},
    {"binder": "IgG1-CD134-003-HC6LC2-P329R-E345R (antibody, humanized; human IgG1 with P329R and E345R (Eu numbering), kappa; also called IgG1-CD134-003-HC6LC2-RR) heavy: not shown light: AAVLTQSPSSLSASVGDRVTITCQSSQIVVNNNFLSWYQQKPGKAPKLLIYDASNLASGVPDRFSGSGSGTDFTFTISSLQPEDIATYYCLGGYDDDAENAFGGGTKVEIKRTVAAPSVFIFPPSDEQLKSGTASVVCLLNNFYPREAKVQWKVDNALQSGNSQESVTEQDSKDSTYSLSSTLTLSKADYEKHKVYACEVTHQGLSSPVTKSFNRGEC", "values": [
      {"measurement": "association response", "setting": "[1]", "result": 0, "unit": "nm"},
      {"measurement": "association response", "setting": "[2]", "result": -0.02, "unit": "nm"},
      {"measurement": "association response", "setting": "[3]", "result": 0, "unit": "nm"},
      {"measurement": "EC50", "setting": "[9]", "result": 0.0236, "unit": "µg/mL"},
      {"measurement": "association response", "setting": "[4]", "result": 0.04, "unit": "nm"},
      {"measurement": "association response", "setting": "[5]", "result": 0.85, "unit": "nm"},
      {"measurement": "association response", "setting": "[6]", "result": 0.74, "unit": "nm"},
      {"measurement": "association response", "setting": "[7]", "result": 0.65, "unit": "nm"},
      {"measurement": "association response", "setting": "[8]", "result": 0.25, "unit": "nm"}
    ]},
    {"binder": "IgG1-CD134-012 (antibody, rabbit-human chimeric IgG1) heavy: not shown light: DIVMTQTPASVEAAVGGTVTIKCQASENIYSSLAWYQQKPGQPPKLLIYRTSTLASGVPSRFKGSGSGTQFTLTISDLESDDAATYYCQSYYHNSGGGYDYGFGGGTEVVAKRTVAAPSVFIFPPSDEQLKSGTASVVCLLNNFYPREAKVQWKVDNALQSGNSQESVTEQDSKDSTYSLSSTLTLSKADYEKHKVYACEVTHQGLSSPVTKSFNRGEC", "values": [
      {"measurement": "association response", "setting": "[1]", "result": 0, "unit": "nm"},
      {"measurement": "association response", "setting": "[2]", "result": 0, "unit": "nm"},
      {"measurement": "association response", "setting": "[3]", "result": 0.03, "unit": "nm"},
      {"measurement": "association response", "setting": "[4]", "result": 0, "unit": "nm"},
      {"measurement": "association response", "setting": "[5]", "result": 0.51, "unit": "nm"},
      {"measurement": "association response", "setting": "[6]", "result": 0.51, "unit": "nm"},
      {"measurement": "association response", "setting": "[7]", "result": 0.42, "unit": "nm"},
      {"measurement": "association response", "setting": "[8]", "result": 0.1, "unit": "nm"}
    ]},
    {"binder": "IgG1-CD134-007 (antibody, rabbit-human chimeric IgG1) heavy: not shown light: AQVLTQTPSPVSAAVGGTVTISCQSSESVWNNNWLAWYQQKPGQPPNLLIYEASTLASGVSSRFKGSGSGTQFTLTVSEVQSDDAATYYCQGGYYDSSPIWTFGGGTEVVVKRTVAAPSVFIFPPSDEQLKSGTASVVCLLNNFYPREAKVQWKVDNALQSGNSQESVTEQDSKDSTYSLSSTLTLSKADYEKHKVYACEVTHQGLSSPVTKSFNRGEC", "values": [
      {"measurement": "association response", "setting": "[1]", "result": 0.15, "unit": "nm"},
      {"measurement": "association response", "setting": "[2]", "result": 0.8, "unit": "nm"},
      {"measurement": "association response", "setting": "[3]", "result": -0.07, "unit": "nm"},
      {"measurement": "association response", "setting": "[4]", "result": -0.02, "unit": "nm"},
      {"measurement": "association response", "setting": "[5]", "result": -0.05, "unit": "nm"},
      {"measurement": "association response", "setting": "[6]", "result": 0, "unit": "nm"},
      {"measurement": "association response", "setting": "[7]", "result": 0.64, "unit": "nm"},
      {"measurement": "association response", "setting": "[8]", "result": 0, "unit": "nm"}
    ]}
  ]
}
